This is an account of results in publication doi:10.1101/2022.01.19.476892.

The target in the test is SARS-CoV S-6P protein (SARS-CoV) (UniProt P59594). As to the kind of experiment: cryo-EM structure.

In the case of “SARS-CoV S-6P protein (from UniProt P59594 14-1195) (domain or fragment)”, the stoichiometry N (usually a count of units in the complex or per binding partner) is 3.
